Test results taken from PMC6610660 (Structure (London, England : 1993), 2019).

Legend:
SpNatA = target: T1, SpNatA (Schizosaccharomyces pombe, UniProt O74985+Q9UTI3); test: ITC; type: binding; conditions: 20 °C, pH 7.0, 200 mM NaCl, 1 mM DTT; Naa10 site
T1 sequence (Q9UTI3 1-156): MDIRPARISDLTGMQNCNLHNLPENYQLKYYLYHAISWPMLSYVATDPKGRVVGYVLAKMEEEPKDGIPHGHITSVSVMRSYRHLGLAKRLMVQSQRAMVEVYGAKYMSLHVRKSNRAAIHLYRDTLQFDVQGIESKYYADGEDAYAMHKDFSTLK
T1 sequence (O74985 1-729): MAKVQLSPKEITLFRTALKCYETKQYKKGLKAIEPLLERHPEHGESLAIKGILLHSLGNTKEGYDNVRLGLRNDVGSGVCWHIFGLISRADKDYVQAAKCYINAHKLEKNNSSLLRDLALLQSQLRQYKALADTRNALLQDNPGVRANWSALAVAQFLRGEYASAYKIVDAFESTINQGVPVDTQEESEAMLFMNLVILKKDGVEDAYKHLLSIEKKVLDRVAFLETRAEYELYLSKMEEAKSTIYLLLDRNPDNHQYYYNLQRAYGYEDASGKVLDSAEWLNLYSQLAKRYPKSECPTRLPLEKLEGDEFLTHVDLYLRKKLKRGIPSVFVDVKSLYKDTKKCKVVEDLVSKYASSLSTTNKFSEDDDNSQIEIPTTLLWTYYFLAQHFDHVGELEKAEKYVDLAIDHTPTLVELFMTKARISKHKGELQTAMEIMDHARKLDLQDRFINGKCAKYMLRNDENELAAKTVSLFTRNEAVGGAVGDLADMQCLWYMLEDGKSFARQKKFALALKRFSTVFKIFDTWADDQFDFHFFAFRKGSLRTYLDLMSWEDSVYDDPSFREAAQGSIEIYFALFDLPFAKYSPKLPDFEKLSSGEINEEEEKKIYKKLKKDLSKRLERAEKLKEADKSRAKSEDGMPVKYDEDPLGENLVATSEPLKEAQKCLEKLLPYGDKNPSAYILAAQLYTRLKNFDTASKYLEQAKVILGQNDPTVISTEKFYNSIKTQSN

GST-ScNaa50 = GST-ScNaa50 (Saccharomyces cerevisiae, UniProt Q08689); test: ITC; type: binding; conditions: 20 °C, pH 7.0, 200 mM NaCl, 1 mM DTT; GST fusion, free GST negative
GST-ScNaa50, sequence (Q08689 whole entry, the tested form may be a part): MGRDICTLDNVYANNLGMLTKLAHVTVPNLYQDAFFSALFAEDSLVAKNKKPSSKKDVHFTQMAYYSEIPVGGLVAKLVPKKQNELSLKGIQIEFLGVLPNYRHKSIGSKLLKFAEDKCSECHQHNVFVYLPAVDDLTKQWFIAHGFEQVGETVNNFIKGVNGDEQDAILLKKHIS

ScNatA/Naa50 = ScNatA/Naa50 (Saccharomyces cerevisiae, UniProt P07347+P12945+Q08689); test: X-ray crystal structure, […] Å; type: binding; conditions: site between Naa10 and Naa15
ScNatA/Naa50, sequence (Q08689 whole entry, one chain of several): as the sequence (Q08689 whole entry, the tested form may be a part) above

[1] = target: Schizosaccharomyces pombe Naa50 labeled with Fluorescein-5-Maleimide (S. pombe); test: fluorescence polarisation
[2] = target: Schizosaccharomyces pombe Naa50 (S. pombe); test: differential scanning fluorimetry
human Naa50 = target: T2, human Naa50 (human, UniProt Q9GZZ1 1-169); test: differential scanning fluorimetry
T2 sequence: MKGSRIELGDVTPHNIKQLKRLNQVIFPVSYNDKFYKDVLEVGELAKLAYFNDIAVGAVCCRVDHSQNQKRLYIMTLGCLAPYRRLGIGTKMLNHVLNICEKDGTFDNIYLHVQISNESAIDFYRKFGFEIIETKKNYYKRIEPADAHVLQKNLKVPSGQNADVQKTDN

CC(=O)SCCNC(=O)CCNC(=O)[C@H](O)C(C)(C)COP(=O)(O)OP(=O)(O)OC[C@H]1O[C@@H](n2cnc3c(N)ncnc32)[C@H](O)[C@@H]1OP(=O)(O)O [acetyl-CoA]
dissociation constant (SpNatA): Representative ITC curve of acetyl-CoA titrated into SpNatA. The calculated dissociation constant is indicated
ITC (GST-ScNaa50): binding signal was detected by ITC between GST-ScNaa50 and acetyl-CoA

O=P(O)(O)O[C@H]1[C@H](OP(=O)(O)O)[C@@H](OP(=O)(O)O)[C@H](OP(=O)(O)O)[C@@H](OP(=O)(O)O)[C@H]1OP(=O)(O)O [IP6]
X-ray crystal structure, 2.7 Å (ScNatA/Naa50): Clear electron density for IP6 was visible between Naa10 and Naa15

B1: Schizosaccharomyces pombe NatA (SpNaa15/SpNaa10 complex), wild type (complex)
chain 1: MAKVQLSPKEITLFRTALKCYETKQYKKGLKAIEPLLERHPEHGESLAIKGILLHSLGNTKEGYDNVRLGLRNDVGSGVCWHIFGLISRADKDYVQAAKCYINAHKLEKNNSSLLRDLALLQSQLRQYKALADTRNALLQDNPGVRANWSALAVAQFLRGEYASAYKIVDAFESTINQGVPVDTQEESEAMLFMNLVILKKDGVEDAYKHLLSIEKKVLDRVAFLETRAEYELYLSKMEEAKSTIYLLLDRNPDNHQYYYNLQRAYGYEDASGKVLDSAEWLNLYSQLAKRYPKSECPTRLPLEKLEGDEFLTHVDLYLRKKLKRGIPSVFVDVKSLYKDTKKCKVVEDLVSKYASSLSTTNKFSEDDDNSQIEIPTTLLWTYYFLAQHFDHVGELEKAEKYVDLAIDHTPTLVELFMTKARISKHKGELQTAMEIMDHARKLDLQDRFINGKCAKYMLRNDENELAAKTVSLFTRNEAVGGAVGDLADMQCLWYMLEDGKSFARQKKFALALKRFSTVFKIFDTWADDQFDFHFFAFRKGSLRTYLDLMSWEDSVYDDPSFREAAQGSIEIYFALFDLPFAKYSPKLPDFEKLSSGEINEEEEKKIYKKLKKDLSKRLERAEKLKEADKSRAKSEDGMPVKYDEDPLGENLVATSEPLKEAQKCLEKLLPYGDKNPSAYILAAQLYTRLKNFDTASKYLEQAKVILGQNDPTVISTEKFYNSIKTQSN
chain 2: MDIRPARISDLTGMQNCNLHNLPENYQLKYYLYHAISWPMLSYVATDPKGRVVGYVLAKMEEEPKDGIPHGHITSVSVMRSYRHLGLAKRLMVQSQRAMVEVYGAKYMSLHVRKSNRAAIHLYRDTLQFDVQGIESKYYADGEDAYAMHKDFSTLK
Kd [1]: 17 nM
melting temperature of NatA with Naa50 added (NatA alone 37.8 °C) [2]: 40.4 °C

B2: human NatA (hNaa15/hNaa10 complex), wild type (complex)
chain 1: MPAVSLPPKENALFKRILRCYEHKQYRNGLKFCKQILSNPKFAEHGETLAMKGLTLNCLGKKEEAYELVRRGLRNDLKSHVCWHVYGLLQRSDKKYDEAIKCYRNALKWDKDNLQILRDLSLLQIQMRDLEGYRETRYQLLQLRPAQRASWIGYAIAYHLLEDYEMAAKILEEFRKTQQTSPDKVDYEYSELLLYQNQVLREAGLYREALEHLCTYEKQICDKLAVEETKGELLLQLCRLEDAADVYRGLQERNPENWAYYKGLEKALKPANMLERLKIYEEAWTKYPRGLVPRRLPLNFLSGEKFKECLDKFLRMNFSKGCPPVFNTLRSLYKDKEKVAIIEELVVGYETSLKSCRLFNPNDDGKEEPPTTLLWVQYYLAQHYDKIGQPSIALEYINTAIESTPTLIELFLVKAKIYKHAGNIKEAARWMDEAQALDTADRFINSKCAKYMLKANLIKEAEEMCSKFTREGTSAVENLNEMQCMWFQTECAQAYKAMNKFGEALKKCHEIERHFIEITDDQFDFHTYCMRKITLRSYVDLLKLEDVLRQHPFYFKAARIAIEIYLKLHDNPLTDENKEHEADTANMSDKELKKLRNKQRRAQKKAQIEEEKKNAEKEKQQRNQKKKKDDDDEEIGGPKEELIPEKLAKVETPLEEAIKFLTPLKNLVKNKIETHLFAFEIYFRKEKFLLMLQSVKRAFAIDSSHPWLHECMIRLFNTAVCESKDLSDTVRTVLKQEMNRLFGATNPKNFNETFLKRNSDSLPHRLSAAKMVYYLDPSSQKRAIELATTLDESLTNRNLQTCMEVLEALYDGSLGDCKEAAEIYRANCHKLFPYALAFMPPGYEEDMKITVNGDSSAEAEELANEI
chain 2: MNIRNARPEDLMNMQHCNLLCLPENYQMKYYFYHGLSWPQLSYIAEDENGKIVGYVLAKMEEDPDDVPHGHITSLAVKRSHRRLGLAQKLMDQASRAMIENFNAKYVSLHVRKSNRAALHLYSNTLNFQISEVEPKYYADGEDAYAMKRDLTQMADELRRHLELKEKGRHVVLGAIENKVESKGNSPPSSGEACREEKGLAAEDSGGDSKDLSEVSETTESTDVKDSSEASDSAS
melting temperature of NatA with Naa50 added (NatA alone 44 °C) (human Naa50): 46.6 °C

B3: Saccharomyces cerevisiae NatA (ScNaa15/ScNaa10 complex), wild type (complex)
chain 1: MSRKRSTKPKPAAKIALKKENDQFLEALKLYEGKQYKKSLKLLDAILKKDGSHVDSLALKGLDLYSVGEKDDAASYVANAIRKIEGASASPICCHVLGIYMRNTKEYKESIKWFTAALNNGSTNKQIYRDLATLQSQIGDFKNALVSRKKYWEAFLGYRANWTSLAVAQDVNGERQQAINTLSQFEKLAEGKISDSEKYEHSECLMYKNDIMYKAASDNQDKLQNVLKHLNDIEPCVFDKFGLLERKATIYMKLGQLKDASIVYRTLIKRNPDNFKYYKLLEVSLGIQGDNKLKKALYGKLEQFYPRCEPPKFIPLTFLQDKEELSKKLREYVLPQLERGVPATFSNVKPLYQRRKSKVSPLLEKIVLDYLSGLDPTQDPIPFIWTNYYLSQHFLFLKDFPKAQEYIDAALDHTPTLVEFYILKARILKHLGLMDTAAGILEEGRQLDLQDRFINCKTVKYFLRANNIDKAVEVASLFTKNDDSVNGIKDLHLVEASWFIVEQAEAYYRLYLDRKKKLDDLASLKKEVESDKSEQIANDIKENQWLVRKYKGLALKRFNAIPKFYKQFEDDQLDFHSYCMRKGTPRAYLEMLEWGKALYTKPMYVRAMKEASKLYFQMHDDRLKRKSDSLDENSDEIQNNGQNSSSQKKKAKKEAAAMNKRKETEAKSVAAYPSDQDNDVFGEKLIETSTPMEDFATEFYNNYSMQVREDERDYILDFEFNYRIGKLALCFASLNKFAKRFGTTSGLFGSMAIVLLHATRNDTPFDPILKKVVTKSLEKEYSENFPLNEISNNSFDWLNFYQEKFGKNDINGLLFLYRYRDDVPIGSSNLKEMIISSLSPLEPHSQNEILQYYL
chain 2: MPINIRRATINDIICMQNANLHNLPENYMMKYYMYHILSWPEASFVATTTTLDCEDSDEQDENDKLELTLDGTNDGRTIKLDPTYLAPGEKLVGYVLVKMNDDPDQQNEPPNGHITSLSVMRTYRRMGIAENLMRQALFALREVHQAEYVSLHVRQSNRAALHLYRDTLAFEVLSIEKSYYQDGEDAYAMKKVLKLEELQISNFTHRRLKENEEKLEDDLESDLLE
increase of the melting temperature of NatA on addition of Naa50 [2]: 7.4 °C
